Assay [1] has as its target photoactivated rhodopsin (Rho*, Meta II) (bovine) (UniProt P02699). Briefly: SEC.
The target is the same in assay [2]. In words: SEC. This is another data set of the same source.

Read-outs that look alike come from different tables or passages of the source.

Sequence of photoactivated rhodopsin (Rho*, Meta II) (bovine) (P02699 whole entry): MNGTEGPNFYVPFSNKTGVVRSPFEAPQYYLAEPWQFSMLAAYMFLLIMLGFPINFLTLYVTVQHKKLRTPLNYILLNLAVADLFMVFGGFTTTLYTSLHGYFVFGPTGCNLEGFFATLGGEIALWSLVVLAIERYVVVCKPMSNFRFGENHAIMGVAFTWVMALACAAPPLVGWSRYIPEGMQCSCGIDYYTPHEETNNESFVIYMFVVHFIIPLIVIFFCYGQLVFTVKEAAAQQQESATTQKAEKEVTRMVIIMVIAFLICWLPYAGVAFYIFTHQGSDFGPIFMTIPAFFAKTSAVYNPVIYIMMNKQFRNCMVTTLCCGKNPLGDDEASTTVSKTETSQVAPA

With “transducin (Gt), rod cell-specific heterotrimeric G protein (from UniProt P04695 1-350; P62871 1-340; P02698 1-74) (complex)”, the stoichiometry N (Rho*:Gt molar ratio) in assay [1] and in assay [2] was 1 in each case.

Values taken from article PMC2753473.
